The record followed here is patent EP3470428A1.

The target of assay [1] is human CD137-Fc chimeric protein (human) (UniProt Q07011). The experiment in a line: SPR (Biacore T200); CD137-Fc captured by anti-human Fc. In general terms: In SPR one partner is held on a chip, and binding of the other changes the refractive index at the surface.
For assay [2], the target named is human PD-L1-Fc chimeric protein (human) (UniProt Q9NZQ7). Briefly: SPR (Biacore T200); PD-L1-Fc captured by anti-human Fc.

Sequence of human CD137-Fc chimeric protein (human) (Q07011 24-186, change not shown): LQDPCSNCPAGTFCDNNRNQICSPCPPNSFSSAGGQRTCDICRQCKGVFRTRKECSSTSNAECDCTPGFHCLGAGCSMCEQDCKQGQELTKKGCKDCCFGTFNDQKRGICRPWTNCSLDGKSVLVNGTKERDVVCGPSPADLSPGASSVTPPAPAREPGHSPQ

B1: PRO1124: 38-02-A04 sc06 Full scDb-i/33_03_G02 sc01 scDb-o (bispecific antibody)
chain: DIQMTQSPSSLSASVGDRVTITCQASQSINDYLAWYQQKPGKAPKLLIYKASTLASGVPSRFSGSGSGTDFTLTISSLQPEDFATYYCQQGYIITDIDNVFGTGTKVTVLGGGGGSQVQLQESGPGLVKPSETLSLTCKASGFSFSNSYWICWVRQPPGKGLEWIGCTFVGSSDSTYYANWAKGRVTISKDSSKNQVSLKLSSVTAADTAVYFCARHPSDAVYGYANNLWGQGTLVTVSSGGGGSGGGGSGGGGSGGGGSLQMTQSPSSLSASVGDRVTITCQASQSINNVLAWYQQKPGKPPKLLIYRASTLASGVPSRFSGSGSGTDFTLTISSLQPEDFATYYCQSSYGNYGDFGTGTKVTVLGGGGGSQVQLQESGPGLVKPSETLSLTCKVSGFSFSSGYDMCWIRQPPGKGLEWIGCVVAGSVDITYYASWAKGRVTISVDSSKNQFSLKLSSVTAADTAVYYCARKDAYSDAFNLWGQGTLVTVSS
In assay [1], B1 showed a fold improvement of affinity against PRO885 of over 200 fold.

B2: PRO1126: 38-02-A04 sc01 scDb-i/33_03_G02 sc03 Full scDb-o (bispecific antibody)
chain: DFQLTQSPSSLSASVGDRVTITCQASQSINDYLAWYQQKPGKSPKLLIYKASTLASGVPSRFSGSGSGTDFTLTISSLQPEDFATYYCQQGYIITDIDNVFGTGTKVTVLGGGGGSQVQLQESGPGLVKPSETLSLTCKVSGFSFSNSYWICWIRQPPGKGLEWIGCTFVGSSDSTYYANWAKGRVTISVDSSKNQFSLKLSSVTAADTAVYYCARHPSDAVYGYANNLWGQGTLVTVSSGGGGSGGGGSGGGGSGGGGSIQMTQSPSSLSASVGDRVTITCQASQSINNVLAWYQQKPGKAPKLLIYRASTLASGVPSRFSGSGSGTDFTLTISSLQPEDFATYYCQSSYGNYGDFGTGTKVTVLGGGGGSQSQLQESGPGLVKPSETLSLTCKASGFSFSSGYDMCWVRQPPGKGLEWIACVVAGSVDITYYASWAKGRVTISKDSSKNQVSLKLSSVTAADTAVYFCARKDAYSDAFNLWGQGTLVTVSS
In assay [2], B2 returned a fold improvement in affinity against the CDR graft (PRO885) of 20 fold.
